For this test, the target named is human 4-1BB (human) (UniProt Q07011). Kind of test: cell-based or functional assay.
human 4-1BB (human), sequence (Q07011 24-255): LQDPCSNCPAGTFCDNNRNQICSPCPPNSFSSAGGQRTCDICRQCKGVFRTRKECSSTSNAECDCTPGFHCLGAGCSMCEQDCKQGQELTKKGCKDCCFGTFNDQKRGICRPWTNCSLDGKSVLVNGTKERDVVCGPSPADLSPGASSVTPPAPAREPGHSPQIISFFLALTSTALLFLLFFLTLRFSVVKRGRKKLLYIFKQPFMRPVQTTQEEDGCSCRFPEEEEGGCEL

With “human 4-1BBL expressed on T cell stimulator cells (from UniProt P41273 1-254) (ligand)”, the NF-κB activation measured through eCFP expression (fold induction) stood at 2.5 fold.
